Measured values published in patent US20080305041A1, “Pf4 Pharmacophores and Their Uses” (BIOQUANTA CORP., priority 2004, published 2008).
Positions count from the first letter of the chain named. In names and notes the source's numbering stands. Each block holds one molecule with its values, some of them ahead of it.

How the values were obtained:
PF4 receptor [1] = assay: PF4 receptor activation by PF4-derived peptides
PF4 receptor [2] = assay: PF4 receptor binding / competition of PF4-derived peptides
HUVEC [3] = assay: Angiogenic activity of mutant PF4 polypeptides in HUVEC cells; assay type: cell-based, Human; details: for antiangiogenic properties/activity of PF4 (effect of the mutation): Table 4 column Function
Description: (§1) Inhibition of DNA synthesis was measured by [^3H]-thymidine incorporation assay. Cells were plated at 15,000 cells per well in a 24 well-plate in 0.5 ml medium containing 2.5% FCS and allowed to attach for 4 hours at 37° C. Proliferation was then induced by addition of 10 ng/ml of FGF-2, VEGF165 or VEGF121. Increasing concentrations of purified recombinant PF4 proteins were added to some wells and HUVEC were further incubated for 48 hours. [^3H]-thymidine (1 μCi/well) was added during the last 20 hours of incubation. Cells were washed twice with PBS and treated with ice-cold 10% (w/v) trichloroacetic acid for 30 minutes. The resulting precipitates were solubilized with 1 M NaOH and incorporated radioactivity was measured in a Beckman LS-6500 multi-purpose scintillation counter.
HUVEC migration was evaluated in a modified Boyden chamber assay. Transwell cell culture chamber inserts with porous polycarbonate filters ([…]) were coated with 0.2% gelatin. HUVEC suspended in medium supplemented with 2.5% FCS were added to the inserts at 4×10^4 cells per well. The inserts were placed over chambers containing a chemotactic stimulus (10 ng/ml VEGF165), and cells were allowed to migrate for 4 hours at 37° C. in a CO2 incubator. For inhibition experiments, recombinant PF4 proteins were added to both the lower and upper chambers. After incubation, filters were rinsed with PBS, fixed with 1% paraformaldehyde and stained with hematoxyline of Harris (EMD Chemicals Inc. Gibbstown, N.J.).
(§2) The upper surfaces of the filters was scraped with a cotton swab to remove the nonmigrant cells. The […] in a optical microscope at high powered (×200) magnification, and the number of cells within the microscope visualization field was recorded. Each experimental point was performed in triplicate, and 20 visual fields were analyzed per filter.
Next, the PF4 surface was mapped using site-directed mutagenesis. In particular, a series of mutant PF4 polypeptides was generated, and their angiogenic activity in HUVEC cells was investigated using assays such as those described in Section 6.1, above. Table 3 below lists amino acid sequences of the PF4 polypeptides generated, along with each polypeptide designation and sequence identification number (SEQ ID NO.). The first sequence, which is designated WTPF4, corresponds to the wild-type, mature PF4 amino acid sequence that is also depicted in FIG. 1C (SEQ ID NO:1). The other sequences depicted in Table 3 comprise one or more amino acid substitutions, indicated by bold-faced, underlined type in the amino acid sequence.

HUVEC [4] = assay: HUVEC migration assay (modified Boyden chamber); assay type: cell-based, Human
Description: (§3) Human umbilical vein endothelial cells (HUVEC) were isolated by collagenase (Roche Diagnostics) digestion as described previously (Jaffe et al., J Clin Invest. 1973; 85(11):2745-56).
(§4) Cells were grown in M199 medium containing 15% fetal calf serum (FCS), 5% human serum, 2 mM glutamine, 50 U/ml penicillin, 50 μg/ml streptomycin, 2.5 μg/ml amphotericin B, and 15 mM HEPES. Cultures were maintained at 37° C. amd 5% CO2 in humidified atmosphere. Every 3-4 days, the cultures were harvested by trypsin treatment, diluted, replated and grown to confluence. HUVEC grown until confluence from the second or third passage are preferably used for experiments described here.
HUVEC migration was evaluated in a modified Boyden chamber assay. Transwell cell culture chamber inserts with porous polycarbonate filters ([…]) were coated with 0.2% gelatin. HUVEC suspended in medium supplemented with 2.5% FCS were added to the inserts at 4×10^4 cells per well. […]
as §2

HUVEC [5] = assay: Endothelial cell proliferation assay ([3H]-thymidine incorporation); assay type: cell-based, Human; details: stimulus not given
Description: as §3, §4
as §1, with “Cells were washed twice with PBS and treated with ice-cold 10% (w/v) trichloroacetic acid for 30 minutes.” left out

activation of PF4 receptor (PF4 receptor [1]): does not activate
Molecule: P37-56: peptide PTAQLIATLKNGRKISLDLQ (SEQ ID NO:158), P34-56 without capping box [Mutant P37-56]

binding to PF4 receptor (PF4 receptor [2]): does not bind to | activation of PF4 receptor (PF4 receptor [1]): does not bind to or activate
Molecule: P35-53: peptide PSPTAQLIATLKNGRKISL (SEQ ID NO:160), P34-53 with His2 removed [Mutant P35-53]

competition against P34-56 for target binding (PF4 receptor [2]; competitor P34-56): effectively competes | competition with PF4 for binding to the PF4 receptor (PF4 receptor [2]; competitor PF4): effectively competes | activation of PF4 receptor (PF4 receptor [1]): does not activate
Molecule: P34-53: peptide PHSPTAQLIATLKNGRKISL (SEQ ID NO:159), derived from residues 34-53 of mature PF4 [Mutant P34-53]

binding to PF4 receptor (PF4 receptor [2]): bind to | activation of PF4 receptor (PF4 receptor [1]): activate
Molecule: P34-56: peptide PHSPTAQLIATLKNGRKISLDLQ (SEQ ID NO:157), derived from residues 34-56 of mature PF4 [Mutant P34-56]

B1: PF4-M10H: mutant PF4 polypeptide SEQ ID NO:19; single mutant T47A, without HBD (protein, listed as Homo sapiens)
chain: EAEEDGDLQCLCVKTASQVRPRHITSLEVIKAGPHCPTAQLIATLKNGRKICLDLQAPLYQEIIQELLES
antiangiogenic properties/activity of PF4 (effect of the mutation) (HUVEC [3]): Mutation does not suppress

B2: PF4-M5H: mutant PF4 polypeptide SEQ ID NO:10; triple mutant L42S, V44Q, T47A, without HBD (protein, listed as Homo sapiens)
chain: B1 chain with L11S, V13Q
antiangiogenic properties/activity of PF4 (effect of the mutation) (HUVEC [3]): Decreases the antiangiogenic

B3: PF4-M5: mutant PF4 polypeptide SEQ ID NO:9; triple mutant L42S, V44Q, T47A carrying HBD (protein, listed as Homo sapiens)
chain: B1 chain with L11S, V13Q, Q61K, E62K, Q65K, E66K
antiangiogenic properties/activity of PF4 (effect of the mutation) (HUVEC [3]): Mutation decreases the

B4: PF4-M1: mutant PF4 polypeptide SEQ ID NO:2; heparan sulfate binding domain (HBD) absent (protein, listed as Homo sapiens)
chain: B1 chain with A16T
inhibition of cell migration (HUVEC) (HUVEC [4]): PF4-M1 also inhibits cell | antiangiogenic properties/activity of PF4 (effect of the mutation) (HUVEC [3]): PF4-M1 is antiangiogenic

B5: PF4-M13H: mutant PF4 polypeptide SEQ ID NO:25; single mutant V50S, without HBD (protein, listed as Homo sapiens)
chain: B1 chain with A16T, V19S
antiangiogenic properties/activity of PF4 (effect of the mutation) (HUVEC [3]): Mutation does not suppress

B6: PF4-M6: mutant PF4 polypeptide SEQ ID NO:11; triple mutant Q49A, V50S, H54A carrying HBD (protein, listed as Homo sapiens)
chain: B1 chain with A16T, Q18A, V19S, H23A, Q61K, E62K, Q65K, E66K
antiangiogenic properties/activity of PF4 (effect of the mutation) (HUVEC [3]): Mutation decreases the

B7: PF4-M3H: mutant PF4 polypeptide SEQ ID NO:6; PF4-M3 mutant without HBD (protein, listed as Homo sapiens)
chain: B1 chain with Q9R, A16T
inhibition of the proliferation of HUVEC cells (HUVEC [5]): This mutant cannot inhibit | inhibition of cell migration (HUVEC) (HUVEC [4]): This mutant cannot inhibit | antiangiogenic properties/activity of PF4 (effect of the mutation) (HUVEC [3]): cancels the antiangiogenic

B8: PF4-M2H: mutant PF4 polypeptide SEQ ID NO:4; tests importance of Cys residues (protein, listed as Homo sapiens)
chain: B1 chain with C10S, A16T, C36S
antiangiogenic properties/activity of PF4 (effect of the mutation) (HUVEC [3]): Complete loss of activity due

B9: PF4-M2: mutant PF4 polypeptide SEQ ID NO:3; tests importance of Cys residues (protein, listed as Homo sapiens)
chain: B1 chain with C10S, A16T, C36S, Q61K, E62K, Q65K, E66K
antiangiogenic properties/activity of PF4 (effect of the mutation) (HUVEC [3]): Complete loss of activity due

B10: PF4-M3: mutant PF4 polypeptide SEQ ID NO:5; DLQ motif replaced by IL8-like motif, carrying HBD (protein, listed as Homo sapiens)
chain: B1 chain with Q9R, A16T, Q61K, E62K, Q65K, E66K
effect on HUVEC compared with WTPF4 (HUVEC [3]): sulfate. It has the same effect
